Patent publication US20190111149A1 (MEDITOPE BIOSCIENCES, published 2019)

B1: Peptide 19: Ac-…XRCGGGK with Duostatin; -Glu-vc-PAB-Duostatin-; X=(S)-2-amino-5-(3-methyl-3H-diazirin-3-yl) pentanoic acid (peptide)
peptide: not shown
modifications: N-terminal acetyl; X at position 10 = (S)-2-amino-5-(3-methyl-3H-diazirin-3-yl)pentanoic acid; -Glu-vc-PAB-Duostatin conjugated
notes: 5-carbon chain at position 10
B2: Peptide 20: Ac-…XRCGGGK with Duostatin; -Glu-vc-PAB-Duostatin-; X=(S)-2-amino-6-(3-methyl-3H-diazirin-3-yl) hexanoic acid (peptide)
peptide: not shown
modifications: N-terminal acetyl; X at position 10 = (S)-2-amino-6-(3-methyl-3H-diazirin-3-yl)hexanoic acid; -Glu-vc-PAB-Duostatin conjugated
B3: Peptide 19: Ac-…XRCGGGK with Duostatin; -Glu-vc-PAB-Duostatin-; X = (S)-2-amino-5-(3-methyl-3H-diazirin-3-yl) pentanoic acid (peptide)
peptide: not shown
modifications: N-terminal acetyl; X10 = (S)-2-amino-5-(3-methyl-3H-diazirin-3-yl)pentanoic acid; Glu-vc-PAB-Duostatin conjugated
notes: also called Peptide 19 (with Duostatin); Peptide 19 (with 1 Duostatin per peptide, DAR 2)

Assays:
[1] = target: T1, Meditope enabled Lintuzumab; test: BLI Octet, antibody on anti-human Fc tip, peptide 12 nM
T1 construct: also called Lintuzumab enabled
T1 sequence (VH, as listed by the source, chain 1 of 2): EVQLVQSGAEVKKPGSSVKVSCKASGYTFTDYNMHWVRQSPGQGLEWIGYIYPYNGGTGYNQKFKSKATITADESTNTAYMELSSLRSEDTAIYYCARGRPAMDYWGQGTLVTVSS
T1 sequence (VL, as listed by the source, chain 2 of 2): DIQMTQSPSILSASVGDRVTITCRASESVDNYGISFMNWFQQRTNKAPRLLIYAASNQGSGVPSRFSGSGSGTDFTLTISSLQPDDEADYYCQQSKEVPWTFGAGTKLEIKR

[2] = target: T2, Meditope enabled Panitumumab; test: as above
T2 construct: also called Panitumumab enabled
T2 sequence (VH, as listed by the source, chain 1 of 2): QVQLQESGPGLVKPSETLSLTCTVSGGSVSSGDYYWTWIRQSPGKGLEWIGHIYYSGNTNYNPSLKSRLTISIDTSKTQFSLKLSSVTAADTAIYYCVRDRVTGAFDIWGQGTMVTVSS
T2 sequence (VL, as listed by the source, chain 2 of 2): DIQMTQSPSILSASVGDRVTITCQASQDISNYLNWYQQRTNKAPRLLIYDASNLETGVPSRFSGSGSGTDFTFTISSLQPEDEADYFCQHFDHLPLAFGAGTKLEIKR

[3] = target: T1, Meditope enabled Lintuzumab; test: BLI Octet, antibody on anti-human Fc tip, peptide 333 nM
[4] = target: T1, Meditope enabled Lintuzumab; test: BLI Octet, antibody on anti-human Fc tip, peptide 111 nM
[5] = target: T1, Meditope enabled Lintuzumab; test: BLI Octet, antibody on anti-human Fc tip, peptide 37 nM
[6] = target: T2, Meditope enabled Panitumumab; test: as above
[7] = target: T1, Meditope enabled Lintuzumab; test: BLI Octet, antibody on anti-human Fc tip, peptide 1000 nM; Peptide 20
[8] = target: T3, Photo optimized trastuzumab; meditope enabled (Tmab); test: BLI Octet, antibody on anti-human Fc tips
T3 construct: also called photo-optimized trastuzumab V2; photo-optimized meditope enabled Trastuzumab variant 2
T3 sequence (heavy, as listed by the source, chain 1 of 2): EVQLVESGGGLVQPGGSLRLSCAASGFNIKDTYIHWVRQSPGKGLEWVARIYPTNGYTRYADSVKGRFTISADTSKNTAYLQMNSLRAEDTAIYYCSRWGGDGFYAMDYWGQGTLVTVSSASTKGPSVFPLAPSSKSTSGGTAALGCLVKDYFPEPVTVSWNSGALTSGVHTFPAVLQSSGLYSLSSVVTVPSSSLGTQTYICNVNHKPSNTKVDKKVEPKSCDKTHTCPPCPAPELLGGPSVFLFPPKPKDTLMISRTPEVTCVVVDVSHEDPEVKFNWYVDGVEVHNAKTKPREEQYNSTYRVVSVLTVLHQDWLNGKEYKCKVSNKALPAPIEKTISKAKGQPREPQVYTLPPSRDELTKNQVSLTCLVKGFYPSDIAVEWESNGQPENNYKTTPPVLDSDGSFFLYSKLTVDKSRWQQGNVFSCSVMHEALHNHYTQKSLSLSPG
T3 sequence (light, as listed by the source, chain 2 of 2): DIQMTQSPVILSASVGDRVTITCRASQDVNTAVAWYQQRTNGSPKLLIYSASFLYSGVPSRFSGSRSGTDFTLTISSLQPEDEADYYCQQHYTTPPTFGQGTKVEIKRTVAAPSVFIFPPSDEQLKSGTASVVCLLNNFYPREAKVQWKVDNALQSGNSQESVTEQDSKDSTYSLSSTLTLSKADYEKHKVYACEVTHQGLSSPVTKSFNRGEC

MBI_CD19_2; (MOR208) = test: BLI Octet, antibody on anti-human Fc tips
Sequence of MBI_CD19_2; (MOR208) (heavy, as listed by the source, chain 1 of 2): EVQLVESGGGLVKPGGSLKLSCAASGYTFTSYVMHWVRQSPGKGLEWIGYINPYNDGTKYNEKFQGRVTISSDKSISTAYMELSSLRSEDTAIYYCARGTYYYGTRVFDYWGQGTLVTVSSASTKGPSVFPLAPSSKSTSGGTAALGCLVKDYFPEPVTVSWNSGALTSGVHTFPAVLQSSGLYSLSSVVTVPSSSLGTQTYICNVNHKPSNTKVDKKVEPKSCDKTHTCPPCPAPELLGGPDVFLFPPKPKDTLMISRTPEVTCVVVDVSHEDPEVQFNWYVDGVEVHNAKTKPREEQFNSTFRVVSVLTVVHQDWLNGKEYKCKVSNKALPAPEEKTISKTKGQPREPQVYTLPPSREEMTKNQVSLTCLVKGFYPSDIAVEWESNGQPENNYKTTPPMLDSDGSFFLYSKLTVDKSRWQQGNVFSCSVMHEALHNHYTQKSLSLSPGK
Sequence of MBI_CD19_2; (MOR208) (light, as listed by the source, chain 2 of 2): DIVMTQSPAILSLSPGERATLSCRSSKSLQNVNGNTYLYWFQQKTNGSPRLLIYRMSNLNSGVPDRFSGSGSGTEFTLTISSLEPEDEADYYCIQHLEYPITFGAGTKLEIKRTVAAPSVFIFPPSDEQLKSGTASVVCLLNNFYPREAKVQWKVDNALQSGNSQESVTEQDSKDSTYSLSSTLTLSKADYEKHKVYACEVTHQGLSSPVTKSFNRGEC

[9] = target: T4, Meditope enabled Ocaratuzumab; test: BLI Octet, antibody on anti-human Fc tips
T4 construct: also called Ocaratuzumab enabled
T4 sequence (heavy, as listed by the source, chain 1 of 2): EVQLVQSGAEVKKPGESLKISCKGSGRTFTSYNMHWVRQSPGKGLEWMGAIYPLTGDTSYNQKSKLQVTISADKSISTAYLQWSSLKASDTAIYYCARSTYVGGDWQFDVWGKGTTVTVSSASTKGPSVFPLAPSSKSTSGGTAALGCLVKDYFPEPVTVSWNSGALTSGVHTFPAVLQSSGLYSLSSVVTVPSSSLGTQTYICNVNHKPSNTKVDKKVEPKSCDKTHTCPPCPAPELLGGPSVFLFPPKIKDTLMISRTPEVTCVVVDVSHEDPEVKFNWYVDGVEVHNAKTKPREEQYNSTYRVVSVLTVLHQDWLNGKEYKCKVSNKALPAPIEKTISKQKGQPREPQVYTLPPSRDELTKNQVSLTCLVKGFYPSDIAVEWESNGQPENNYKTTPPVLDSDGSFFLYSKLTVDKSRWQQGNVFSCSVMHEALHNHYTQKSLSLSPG
T4 sequence (light, as listed by the source, chain 2 of 2): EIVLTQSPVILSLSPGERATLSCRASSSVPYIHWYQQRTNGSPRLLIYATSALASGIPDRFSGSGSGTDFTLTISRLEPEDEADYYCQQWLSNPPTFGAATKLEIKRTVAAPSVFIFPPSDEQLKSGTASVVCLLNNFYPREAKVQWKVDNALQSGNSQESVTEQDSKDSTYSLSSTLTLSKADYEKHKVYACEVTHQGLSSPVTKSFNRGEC

MBI_CD19_1; (SAR3419) = test: BLI Octet, antibody on anti-human Fc tips
Sequence of MBI_CD19_1; (SAR3419) (heavy, as listed by the source, chain 1 of 2): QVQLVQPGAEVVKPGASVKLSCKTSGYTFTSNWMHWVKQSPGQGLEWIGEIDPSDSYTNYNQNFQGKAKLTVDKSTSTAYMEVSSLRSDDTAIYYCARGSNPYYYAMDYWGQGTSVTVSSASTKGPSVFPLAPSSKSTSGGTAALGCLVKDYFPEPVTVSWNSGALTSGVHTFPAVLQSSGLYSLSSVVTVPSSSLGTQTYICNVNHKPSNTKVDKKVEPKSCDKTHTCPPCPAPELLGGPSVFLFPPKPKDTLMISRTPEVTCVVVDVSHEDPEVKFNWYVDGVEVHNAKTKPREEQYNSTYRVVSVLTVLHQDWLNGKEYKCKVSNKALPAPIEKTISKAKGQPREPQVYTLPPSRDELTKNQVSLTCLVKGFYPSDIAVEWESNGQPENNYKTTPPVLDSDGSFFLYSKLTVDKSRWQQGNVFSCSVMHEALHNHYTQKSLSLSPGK
Sequence of MBI_CD19_1; (SAR3419) (light, as listed by the source, chain 2 of 2): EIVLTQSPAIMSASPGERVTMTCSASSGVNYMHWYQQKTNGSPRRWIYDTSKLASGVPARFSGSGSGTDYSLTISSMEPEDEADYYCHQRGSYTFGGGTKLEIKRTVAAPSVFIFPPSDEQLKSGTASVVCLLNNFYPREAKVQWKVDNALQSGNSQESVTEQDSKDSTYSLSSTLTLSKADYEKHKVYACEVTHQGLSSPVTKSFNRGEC

[10] = target: T5, Meditope enabled Clivatuzumab; test: BLI Octet, antibody on anti-human Fc tips
T5 construct: also called Clivatuzumab enabled
T5 sequence (heavy, as listed by the source, chain 1 of 2): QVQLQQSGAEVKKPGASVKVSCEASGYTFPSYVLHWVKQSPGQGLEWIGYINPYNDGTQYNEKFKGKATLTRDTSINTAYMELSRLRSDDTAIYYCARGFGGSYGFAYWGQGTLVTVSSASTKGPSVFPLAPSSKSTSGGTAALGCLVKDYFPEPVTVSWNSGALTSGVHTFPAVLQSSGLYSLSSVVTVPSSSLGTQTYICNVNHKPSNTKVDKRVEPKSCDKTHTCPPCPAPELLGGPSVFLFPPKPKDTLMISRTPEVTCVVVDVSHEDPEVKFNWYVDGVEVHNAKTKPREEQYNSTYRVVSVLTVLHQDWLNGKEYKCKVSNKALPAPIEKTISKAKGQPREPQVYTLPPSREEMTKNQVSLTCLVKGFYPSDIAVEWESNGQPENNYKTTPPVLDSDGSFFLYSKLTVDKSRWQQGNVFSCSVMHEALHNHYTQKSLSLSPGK
T5 sequence (light, as listed by the source, chain 2 of 2): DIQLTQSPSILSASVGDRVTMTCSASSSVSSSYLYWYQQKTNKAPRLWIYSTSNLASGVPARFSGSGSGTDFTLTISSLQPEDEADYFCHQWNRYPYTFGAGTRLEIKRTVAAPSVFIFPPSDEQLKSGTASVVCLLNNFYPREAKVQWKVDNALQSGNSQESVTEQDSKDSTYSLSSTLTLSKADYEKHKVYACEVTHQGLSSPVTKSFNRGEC

[11] = target: T6, Meditope enabled Trastuzumab; test: BLI Octet, antibody on anti-human Fc tips
T6 construct: also called Trastuzumab enabled
T6 sequence (heavy, as listed by the source, chain 1 of 2): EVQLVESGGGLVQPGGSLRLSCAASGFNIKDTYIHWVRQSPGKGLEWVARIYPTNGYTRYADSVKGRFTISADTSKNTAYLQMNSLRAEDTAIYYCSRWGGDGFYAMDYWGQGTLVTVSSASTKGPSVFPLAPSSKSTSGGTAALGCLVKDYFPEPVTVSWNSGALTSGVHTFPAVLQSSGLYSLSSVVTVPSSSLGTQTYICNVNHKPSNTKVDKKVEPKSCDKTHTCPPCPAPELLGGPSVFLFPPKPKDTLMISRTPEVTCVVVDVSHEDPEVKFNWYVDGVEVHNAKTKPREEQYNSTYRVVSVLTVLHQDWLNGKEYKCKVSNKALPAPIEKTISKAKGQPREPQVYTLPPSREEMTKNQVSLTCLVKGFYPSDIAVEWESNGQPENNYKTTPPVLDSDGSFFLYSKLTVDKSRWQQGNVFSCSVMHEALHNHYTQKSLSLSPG
T6 sequence (light, as listed by the source, chain 2 of 2): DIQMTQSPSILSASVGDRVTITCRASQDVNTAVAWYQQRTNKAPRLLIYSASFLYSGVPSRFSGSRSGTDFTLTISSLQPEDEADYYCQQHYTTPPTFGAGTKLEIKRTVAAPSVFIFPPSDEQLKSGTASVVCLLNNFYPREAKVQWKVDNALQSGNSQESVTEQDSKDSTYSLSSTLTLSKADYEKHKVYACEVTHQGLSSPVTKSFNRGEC

[12] = target: T3, Photo optimized trastuzumab; meditope …; test: BLI Octet, antibody on anti-human Fc tips; Peptide 19, Table 9
[13] = target: T3, Photo optimized trastuzumab; meditope …; test: BLI Octet, antibody on anti-human Fc tips; remark: listed apart in the source

Binder | Kd [1] [nM] | Kd [2] [nM] | Kd [3] [nM] | Kd [4] [nM] | Kd [5] [nM] | Kd [6] [nM] | Kd [7] [nM] | Kd [8] [nM] | Kd (MBI_CD19_2; (MOR208)) [nM] | binding result [9] | binding result (MBI_CD19_1; (SAR3419)) | binding result [10] | Kd [11] [nM] | Kd [12] [nM] | Kd [13] [nM]
B1 | 55.5 | < 0.001 | 1170 | 3000 | 5680 | < 0.001 | – | – | – | – | – | – | – | – | –
B2 | 246 | – | 6550 | 3340 | 1210 | – | 19800 | – | – | – | – | – | – | – | –
B3 | – | – | – | – | – | – | – | 33.8 | 33.8 | no binding | no binding | no binding | 149 | 120 | 42.8
